Assay results as given in publication PMC5024094, “Identification of a novel sesquiterpene biosynthetic machinery involved in astellolide biosynthesis” (Scientific Reports, 2016).

Legend:
purified protein [1] = substrate: O=C(O)c1ccccc1; assay: purified protein; format: biochemical, Aspergillus oryzae; settings: A-domain, 2.5 mM ATP, 5 mM MgCl2, 50 mM Tris-HCl pH 7.4, 1 mM DTT, 2 μM AstA, Sfp modification of T-domain essential
purified protein [2] = substrate: O=C(O)c1ccc(O)cc1; assay: purified protein; settings: A-domain, 2.5 mM ATP, 5 mM MgCl2, 50 mM Tris-HCl pH 7.4, 1 mM DTT, 2 μM AstA, Sfp modification of T-domain essential

B1: AstA (Aspergillus oryzae RIB40) (protein)
chain: MDLEPWGPLYRKQDQDGSLDNIAVVSGDIPSPHPKNEPSQTSTLHIPRDSDLDSDIPSVPTALIIAWGLTLSSLTGDEVVGFDLLPFRGDYQDLGARPYHFLLKFGYREWSREAATTGMDLGSASSEGLPQGMGNRPQIAPSRFRNVLIIKQCSDAPGDSGSLESPSLGNVDKDEPTDAFRADMFISIQCGIGRTGIDVHCSFDPAFWTSENIRMILLDLSRNFKEVMRCGRDDTPLTCLEGMSPKGLDCVLRRNIIPPPPKMEACVHHRFQARCRQNPSALAIDAWDGQLTYAELDSLSSQLASRLVSSITICPRGFMGVLMEKSAWVPVAILAVLKVGSAFVFLDGSQPLQRLKIICAETKSQLVLSSAHYREKANTLGPPVLLVEKNQSGLGQAKENDSCPSLLEDYPQPQSQPQDTLYAVFTSGSTGEPKGAMVDHGAFCTMCGPQMAARPTTNVSPRVFQFAPHAFTVSILDYLGTLLQGGCVCVPSEEELRNNMAGAIEGLSANIVTMTPSMARVLDPTQTPSLQLVLLAGEMMAQCDLDKWSQCVRLLSLYGQSENAAGSMISEKSIVPRAPNTFETLTPGFQCWIVSQDNPHRLMALGEVGELLLEGPALGQGYMNDPIQTEDKFICRSFCLEYAHSGSPQSYRLFKTGDLVRYTPAGEIELLGRKGAEVKLRGQRIDLTEIEHHLRCLFPSATRVVADVIIPSDDIDGLHPVLAAFVQVDSVSRTGQSAEATFASPRPEFRAEAKAVLSGLCQTIPSYMIPMTIIPTEAFPFTATGKLDRRSLRQYASAMSRSDLLKYVTDDRGPVVTAVTPVEIIIHDACVEALGVSSDKVGMLDSFPDLGGDSLAARRMVSICRTKGLELAVADILAHSSLTSLAEKCSAGGGGAKQISQGVEMLDPFSTAKEEFLSHLPSFLPNADMIADVFPVQGAQRRAARAIDTFIFRLSGPVDADRLRDACQVLQQAHLALRSIFVPFYGKFMQVVLRVPPLDFTRRLLPDGTDLVKWAESIGQADKTQRPPSEEFVVRFTLAETAGTPDYSIFMMRLSHAQYDAGCLARIISDLWAVYEQKQLVVKSDFAQYARRAVQQTHLLSMEAFWRDLLAGTTGLTPLPVTGISAEEERTIIVQQRVELKEPPPTGISMATVVRGAWSWVLHQQTGNTVVVFNEMLNGRDVVPLEDTEPVVGACHSIVPVCVHFPLPQSGRTPRELLSALQEQHLASLTFTTLDRDYLIQNCTEWTSHQSGFILAYQNFPEICDLVIGEDLSCQWASQVLDLAEPGEAWVTATPLPGALQISLRVSTAAMDEQEANAWISALGQTIIRFLDSPDSVL
notes: recombinant, expressed in Escherichia coli BL21, purified; 1338 aa gene product with A, T and C domains; tag details only in supplement
Q: How did the Km (purified protein [1]) turn out when B1 was run?
A: 4.9 µM

Q: What about the kcat (purified protein [1]) of the same protein?
A: 0.0222 s⁻¹

Q: And the Km (purified protein [2])?
A: 3.8 µM

Q: What about the kcat (purified protein [2]) of the same protein?
A: 0.0163 s⁻¹
